Reference: patent publication US8318918B2, “Chalcone 3-hydroxylase” (Technische Universitat Wien, priority 2009, dated 2012)

Key:
[1] = system: recombinant CH3H from Cosmos sulphureus; assay: Enzyme assay and kinetic studies of recombinant CH3H with 14C-labelled substrates; format: biochemical; conditions: recombinant enzyme from the Cosmos sulphureus cDNA clone expressed in yeast
Excerpt: Heterologous Expression in Yeast For the heterologous expression, the proofreading amplicons were ligated into the yeast expression vector pYES2.1/V5-His-TOPO® (Invitrogen, UK) and transformed into E. coli TOP10F′ (Invitrogen, UK). The identification of the sense constructs took place with a PCR, for which a gene-specific forward and a plasmid-specific reverse primer was used. Sense constructs were isolated and the correct sequence confirmed by sequencing. Desired plasmids were then transformed into the yeast strain INVSc 1 (Invitrogen, UK). The heterologous expression was performed according to methods known in science, and the prepared proteins were shock-frozen in liquid nitrogen and stored at −80° C. […]
(§1) In order to determine the substrate specificity of the heterologously expressed F3′Hs, the following enzyme tests were performed: 20 μg of the recombinant wild-type CH3H or 50 μg of the hybrid proteins, respectively, were incubated with 0.25 nmol [14C]-marked chalcone or flavonoid substrates in the presence of 10 mM NADPH and 0.1 M KH2PO4—K2HPO4 (with 0.4% Na-ascorbate, pH: 7.5) buffer at 30° C. […] Detection and quantification of radioactivity took place using TLC analysis.
Kinetic data (apparent Michaelis constant (Km) and maximum speed of reaction (Vmax)) were determined using Lineweaver Burk plots.

[2] = F3′H activity (substrate acceptance) of heterologously expressed native, chimeric and mutated enzymes; format: biochemical, Cosmos sulphureus; conditions: recombinant enzymes expressed in yeast
Excerpt: (§2) Heterologous Expression in Yeast For the heterologous expression, the proofreading amplicons were ligated into the yeast expression vector pYES2.1/V5-His-TOPO® (Invitrogen, UK) and transformed into E. coli TOP10F′ (Invitrogen, UK). The identification of the sense constructs took place with a PCR, for which a gene-specific forward and a plasmid-specific reverse primer was used. Sense constructs were isolated and the correct sequence confirmed by sequencing. Desired plasmids were then transformed into the yeast strain INVSc 1 (Invitrogen, UK). The heterologous expression was performed according to methods known in science, and the prepared proteins were shock-frozen in liquid nitrogen and stored at −80° C. The determination of the amount of protein in the preparations was performed according to a modified Lowry method.
as §1

[3] = CH3H activity (hydroxylation of chalcones) of heterologously expressed native, chimeric and mutated enzymes; format: biochemical, Cosmos sulphureus; conditions: recombinant enzymes expressed in yeast
Excerpt: as §2, §1

O=C(/C=C/c1ccc(O)cc1)c1ccc(O)cc1O [Iso, isoliquiritigenin]
catalytic CH3H activity with substrate [1]: high catalytic CH3H activities

B1: F3′H: recombinant F3′H from Cosmos sulphureus (Accession No.: FJ216426), tested as a comparison (protein, listed as Cosmos sulphureus)
chain: MTILPLLLYPSLTALLLYVLLNLRPRHPNRLPPGPSPWPIVGNLPHLGTTPHHSLAALAAKYGPLMHLRLGFVDVVVAASASVASQFLKTHDANFASRPPNSGAEHMAYNYQDLVFAPYGPRWRMLRKICSVHLFSGKALDDFRHVRQEEVAVLTRALAGAGKSPVKLGQLLSVCTTNALARVMLGRRVFGERDAKADEFKDMVVEMMVLAGEFNIGDFIPALDWLDLQGITKKMKKLHAQFDSFLNTILEEHKTGKGGSSSHRDLSSTLIALKDDADGEGGKLSDIEIKALLLNLFIAGTDTSSSTVEWAIAELIRCPQILRQAHEEMDNVVGRERLVTESDLGKLTFLQAIVKETFRLHPSTPLSLPRIASESCEIDGYFIPKGSTLLVNVWAIARDPKMWTDPLEFRPTRFLPGGEKPNVDVKGNDFEVIPFGAGRRICVGISLGLRMVQLLVATLVQTFDWELANGVLPEKLNMNEAFGLTLQRAEPLIVYPKPRLAPHVYESG
F3′H activity [2]: confirmed the F3′H activity | CH3H activity (hydroxylation of chalcones) [3]: lacking CH3H activity
